{"source": "paper PMC8597880", "target": "recombinant SARS-CoV-2 RBD, Prototype (SARS-CoV-2, prototype) (UniProt P0DTC2)", "assay": "BLI", "data": [{"substance": "NIH-CoVnb-112 (VHH)", "values": [{"measurement": "Kd", "value": 1.59, "unit": "nM"}, {"measurement": "koff", "value": 0.000236, "unit": "s⁻¹"}]}]}
